Experimental data as given in US20250177530A1, “MOLECULES THAT BIND TO ENPP1 POLYPEPTIDES” (UNIVERSITY OF PITTSBURGH - OF THE COMMONWEALTH SYSTEM OF …, priority 2022, published 2025).

Assays:
[1] = target: human ENPP1 on the cell surface (293T-ENPP1 cells, HepG2 cells) (human) (UniProt P22413); assay: flow cytometry on HepG2 cells, APC-A against SSC-A
[2] = target: human ENPP1 on the cell surface (293T-ENPP1 cells, HepG2 cells) (human) (UniProt P22413); assay: flow cytometry on 293T-ENPP1 cells, APC-A against SSC-A

human ENPP1 on the cell surface (293T-ENPP1 cells, HepG2 cells) (human), sequence (P22413 whole entry): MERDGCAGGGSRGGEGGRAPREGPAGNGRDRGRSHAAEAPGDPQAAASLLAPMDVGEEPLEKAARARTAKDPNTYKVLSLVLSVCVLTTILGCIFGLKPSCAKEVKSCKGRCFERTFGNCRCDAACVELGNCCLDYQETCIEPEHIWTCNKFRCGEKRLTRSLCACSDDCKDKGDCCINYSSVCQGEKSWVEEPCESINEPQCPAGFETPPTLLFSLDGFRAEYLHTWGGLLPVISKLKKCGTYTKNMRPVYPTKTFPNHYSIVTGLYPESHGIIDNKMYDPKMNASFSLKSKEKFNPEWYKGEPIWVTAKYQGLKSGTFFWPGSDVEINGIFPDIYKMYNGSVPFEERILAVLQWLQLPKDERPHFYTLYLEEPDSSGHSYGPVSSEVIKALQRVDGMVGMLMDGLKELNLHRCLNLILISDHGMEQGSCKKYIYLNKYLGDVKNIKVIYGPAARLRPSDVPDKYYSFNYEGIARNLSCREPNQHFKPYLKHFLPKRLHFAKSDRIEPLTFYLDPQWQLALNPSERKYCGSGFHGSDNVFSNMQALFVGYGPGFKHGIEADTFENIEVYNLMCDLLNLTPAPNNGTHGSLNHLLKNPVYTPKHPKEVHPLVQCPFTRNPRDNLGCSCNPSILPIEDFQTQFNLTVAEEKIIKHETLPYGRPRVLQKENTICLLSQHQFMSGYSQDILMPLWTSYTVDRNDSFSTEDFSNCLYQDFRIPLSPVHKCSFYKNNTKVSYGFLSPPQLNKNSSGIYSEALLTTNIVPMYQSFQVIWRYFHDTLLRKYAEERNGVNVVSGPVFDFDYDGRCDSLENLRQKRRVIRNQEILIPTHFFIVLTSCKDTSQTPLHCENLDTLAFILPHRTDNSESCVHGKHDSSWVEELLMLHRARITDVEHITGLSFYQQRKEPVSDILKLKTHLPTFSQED

percent of cells in the APC-positive gate [1]: 0.4%
percent of cells in the APC-positive gate [2]: 0.4%
Substance: Isotype Ctrl (antibody)
